# According to paper PMC5834214 (PLoS Pathogens, 2018):
# B1: HNRNPC (protein, UniProt P07910 2-306, looked up)
# Heterogeneous nuclear …: ASNVTNKTDPRSMNSRVFIGNLNTLVVKKSDVEAIFSKYGKIVGCSVHKGFAFVQYVNERNARAAVAGEDGRMIAGQVLDINLAAEPKVNRGKAGVKRSAAEMYGSVTEHPSPSPLLSSSFDLDYDFQRDYYDRMYSYPARVPPPPPIARAVVPSKRQRVSGNTSRRGKSGFNSKSGQRGSSKSGKLKGDDLQAIKKELTQIKQKVDSLLENLEKIEKEQSKQAVEMKNDKSEEEQSSSSVKKDETNVKMESEGGADDSAEEGDLLDDDDNEDRGDDQLELIKDDEKEAEEGEDDRDSANGEDDS
# Tests used:
# eGFP = eGFP (Aequorea victoria, UniProt P42212, F64L/H231L/S65T)
# LCMV NP (Strep-NP) = LCMV NP (Strep-NP) (Lymphocytic choriomeningitis virus, UniProt P09992)
# Sequence of LCMV NP (Strep-NP) (P09992 whole entry): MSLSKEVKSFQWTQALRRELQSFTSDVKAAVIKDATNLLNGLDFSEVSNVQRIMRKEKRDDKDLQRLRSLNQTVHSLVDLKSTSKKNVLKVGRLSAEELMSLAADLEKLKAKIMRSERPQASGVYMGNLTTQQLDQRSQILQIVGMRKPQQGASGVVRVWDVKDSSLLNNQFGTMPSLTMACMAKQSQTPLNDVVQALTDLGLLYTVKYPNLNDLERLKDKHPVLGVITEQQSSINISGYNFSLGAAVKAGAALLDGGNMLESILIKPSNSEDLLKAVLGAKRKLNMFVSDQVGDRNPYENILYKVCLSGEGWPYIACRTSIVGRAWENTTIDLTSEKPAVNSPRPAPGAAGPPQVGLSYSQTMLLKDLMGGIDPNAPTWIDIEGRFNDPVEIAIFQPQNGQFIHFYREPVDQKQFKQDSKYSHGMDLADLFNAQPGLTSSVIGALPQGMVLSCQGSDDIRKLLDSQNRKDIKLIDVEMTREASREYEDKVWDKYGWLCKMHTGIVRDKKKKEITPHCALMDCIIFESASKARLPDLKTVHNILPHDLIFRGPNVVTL
molecule,measurement,setting,value
B1,Spectral count eGFP Average,eGFP,0
same,Spectral count eGFP Exp. 1,eGFP,0
same,Spectral count eGFP Exp. 2,eGFP,0
same,Spectral count NP Average,LCMV NP (Strep-NP),4.5
same,Spectral count NP Exp. 1,LCMV NP (Strep-NP),4
same,Spectral count NP Exp. 2,LCMV NP (Strep-NP),5
